T1: human DLL3 (immobilized human DLL3 or h293-hDLL3 cells) (human, UniProt Q9NYJ7 27-492, limits assumed)
T1 construct: the sentence says 'immobilized human DLL3 or h293-hDLL3 cells'
T1 sequence: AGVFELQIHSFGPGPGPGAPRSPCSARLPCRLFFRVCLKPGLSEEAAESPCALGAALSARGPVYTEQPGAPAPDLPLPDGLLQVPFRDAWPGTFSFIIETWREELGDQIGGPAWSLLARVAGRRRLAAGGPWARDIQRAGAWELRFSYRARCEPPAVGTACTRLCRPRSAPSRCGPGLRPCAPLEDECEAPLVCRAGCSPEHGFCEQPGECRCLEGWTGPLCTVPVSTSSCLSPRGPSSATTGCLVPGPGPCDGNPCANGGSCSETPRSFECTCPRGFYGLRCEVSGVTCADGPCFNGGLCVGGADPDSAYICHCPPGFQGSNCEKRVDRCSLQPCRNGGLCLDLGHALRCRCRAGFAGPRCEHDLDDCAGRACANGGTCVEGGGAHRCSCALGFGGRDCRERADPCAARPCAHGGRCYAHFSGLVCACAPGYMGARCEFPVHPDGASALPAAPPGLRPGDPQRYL

B1: SC16.117 (antibody, V domains shown)
VH: QVQLKESGPGLVAPSQSLSITCTVSGFSLTNYGVHWVRQPPGKGLEWLGVIWAGGITNYNSALMSRLSISEDNSKSQVFLKMNSLQTDDTAMYYCARNLGPYAMDYWGQGTSVTVSS
VL: DIQMNQSPSSLSASLGDTITITCHVSQNINVWLSWYQQKPGNIPKLLIQKASNLHTGVPSRFSGSGSGTGFTLTISSLQPEDIATYYCQQGQSYPFTFGSGTKLEIK
notes: murine mAb; variable regions only
B2: SC16.116 (antibody, V domains shown)
VH: QVQLKQSGPGRVQPSQSLSITCTVSGFSLTSNGVHWVRQSPGKGLEWLGVLWSGGSTDYNAAFISRLSISKDNYKSQVFFKMNSLQANDTAIYYCARNNNRYGAMDYWGQGTSVTVSS
VL: DIVMTQSPSSLTVTAGEKVTMSCTSSQSLLTSGNQKNYLTWYQQKPGQPPKLLIYWASTRESGVPDRFTGSGSGTDFTLTISSLQAEDLAVYYCQNDYSLTFGAGTKLELK
notes: as for B1
B3: SC16.106 (antibody, V domains shown)
VH: QVQLKQSGPGLVAPSQSLFITCTVSGFSLTSYEINWVRQPPGKGLEWLGVIWTGGSTNYNSALISRLSISKDNSKSLVFLKMNSLQTDDTAIYYCVRGVYAMDYWGQGTSVTVSS
VL: DIKMTQSPSSMYASLGERVTITCKASQDINSYLSWFQQKPGKSPKTLIYRANRLVDGVPSRFSGSGSGQDYSLTISSLEYEDMGIYYCLQYDEFPFTFGSGTKLEIK
notes: as for B1
B4: SC16.109 (antibody, V domains shown)
VL: QIVLTQSPAIMSASPGEKVTMTCSASSSVSYMYWYQQKPGSSPRLLIYDTSNLASGVPVRFSGSGSGTSFSLTISRMEAEDTATYYCQEWSGNPLTFGDGTKLELK
V domain: QIQLVQSGPELKKPGETVKISCKASGYTFTNYGMNWVKQAPGKGLKWMGWINTYTGEPAYADDFKGRFAFSLETSASAAYLQINNLKNEDTATFFCANMRPTRGFAYWGQGTLGTVSA
notes: as for B1
B5: SC16.111 (antibody, V domains shown)
VH: EVQLQQSGPELEKPGASVKISCKASGYSFTGYNMNWVKQSNGKSLEWIGNIDPYYGGSSYKQKFEGKATLTVDKSSSTAYMQLKSLTSEDSAVYYCARGGSNFFDYWGQGTTLTVSS
VL: DIQMTQSPASLAASVGETVTITCRASENIYYSLAWYQQKQGKSPQLLIYNANSLEDGVPSRFSGSGSGTQYSMKINSMQPEDTATYFCKQTYDVPLTFGAGTKLELK
notes: as for B1
B6: SC16.123 (antibody, V domains shown)
VH: QVALKESGPGILQPSQTLSLTCSFSGFSLSTSGMGVGWIRQPSGKGLEWLAHIWWDDVKRYNPALKSRLTISKDTSSSQVFLKIASVDTADTATYYCARMEDYGSSSYFDFWGHGTTLTVSS
VL: QIVLTQSPAIMSASLGERVTMTCTASSSVSSSYLHWYQQKPGSSPKLWIYSTSNLASGVPARFSGSGSGTSYSLTISSMETEDAATYYCHQYHRSPFTFGSGTKLEIK
notes: as for B1
B7: SC16.121 (antibody, V domains shown)
VH: EVQLVESGGGLVQPKGSLKLSCAASGFTFNTYAMNWVRQAPGKGLEWVARIRIKSNNYATYYADSVKDRFTISRDDSQNMLYLQMNNLKTEDTAVYYCVRQGYSYDWGPWFAYWGQGTLVTVSA
VL: QIVLTQSPAIMSASPGEKVTITCSASSSVSYMHWFQQKPGTSPKLWIYSTSNLASGVPARFSGSGSGTSYSLTISRMEAEDAATYYCQQRSSYPPTFGGGTKLEIK
notes: as for B1
B8: SC16.114 (antibody, V domains shown)
VH: EVQLQQSGAELVKPGASVKLSCTASGFNIKDTYIHWVKQRPEQGLEWIGRIDPANGNTKYDPKFQGKATITPDTSSNTAYLQLSSLTSEDTAVYYCARSWRNYGSSFWYFDVWGAGTTVTVSS
VL: QIVLSQSPAILSASPGEKVTMTCRASSSVSYMHWYQQKPGSSPKPWIYATSNLASGVPARFSGSGSGTSYSLTISRVEAEDAATYYCQQWSSNPYTFGGGTKLEIK
notes: as for B1
B9: SC16.124 (antibody, V domains shown)
VH: EVQLQQSGPELVKPGASVKMSCKASGYTFTSYVMHWVKQKPGQGLEWIGYINPYNDGTKYNEKFKGKATLTSDKSSSTAYMELSSLTSEDSAVYYCARGALYYGNYLGYFDVWGAGTTVTVSS
VL: DIQMTQSPASQSASLGESVTITCLASQTIGTWLAWYQQKPGKSPQLLISAATSLADGVPSRFSGSGSGTKFSFKISSLQAEDFVSYYCQQLYSTPWTFGGGTKLEIK
notes: as for B1
B10: SC16.132 (antibody, V domains shown)
VH: QVQLKESGPGLVAPSQSLSITCTVSGFSLTDYGVSWIRQPPGKGLEWLGVVWGGGSTYYNSALKSRLSITKDNSKSQVFLKMNSLQTDDTAMYYCAKQRGQYGAYWGQGTLVTVSA
VL: DIQMTQSPASQSASLGESVTITCLASQTIGTWLAWYQQKPGKSPQLLIYAATSLADGVPSRFSGSGSGTKFSFKISSLQAEDFVSYYCQQLYSTPWTFGGGTKLEIK
notes: as for B1
B11: SC16.129 (antibody, V domains shown)
VH: QVQLKESGPGLVAPSQSLSITCTVSGFSLTDYGVSWIRQPPGKGLEWLGVIWGGGSTYYNSALKSRLSISKDNSKSQVFLELNSLQTDDTAIYYCAKHYGHYAAYWGQGTLVTVSA
VL: DIQMTQSPASQSASLGESVTITCLASQTIGTWLAWYQQKPGKSPQLLIYAATSLADGVPSRFSGSGSGTKFSFKISSLQAEDFVSYYCQQLYSTPYTFGGGTKLEIK
notes: as for B1
B12: SC16.118 (antibody, V domains shown)
VH: EVQLQQSGPDLVKPGASVKISCKASGYSFTGYYMHWVKQSHGKSLEWIGRVNPNNGGTSYNQKFKGKAILTADKSSSTAYMELRSLTSEDSAVYYCARGSYDYAEGWGQGTLVTVSA
VL: DIVLTQSPASLAVSLGQRATISCKASQSVDYDGDSYLTWYQQKPGQPPKLLIYAASNLESGIPARFSGSGSGTDFTLNIHPVEEEDAATYYCQQSNEDPYTFGGGTKLEIK
notes: as for B1
B13: SC16.134 (antibody, V domains shown)
VH: EVQLQQSGPDLVKPGASVKISCKASGYSFTGYYMHWVKQSHGKRLEWIGRVNPNNGGTNYNQKFKGKAILTVDKSSSTAYMELRSLTSEDSAVYYCARGSYDNAEGWGQGTLVTVSA
VL: DIVLTQSPASLAVSLGQRATISCKASQSVDHAGDSYMNWYQQKPGQPPKLLIYAASNLESGIPARFSGSGSGTDFTLNIHPVEEEDAATYYCQQSNEDPYTFGGGTKLEIK
notes: as for B1
B14: SC16.107 (antibody, V domains shown)
VH: EVQLQQSGPELVKPGASVKMSCKASGYTFTNYVMHWVKQKPGQGLEWIGYINPYNDGTKYNEKFKGKATLTSDKSSTTAYMALSSLTSEDSAVYYCAVAYYSNWGFAYWGQGTLVTVSA
VL: DIVMTQSHKFMSTSVGDRVSITCKASQDVNTAVGWYQQKPGQSPKLLIYSASYRYTGVPDRFTGSGSGTDFTFTISSVQAEDLAVYYCQQHYSSPYTFGGGTKVEIK
notes: as for B1
B15: SC16.139 (antibody, V domains shown)
VH: EVQLQQSGPELVKPGASVKMSCKASGYTFTNYVMHWVKQKPGQGLEWIGYINPYNDGTKYNEKFKGKATLTSDKSSTTAYMALSSLTSEDSAVYYCAVAYYSNWGFAYWGQGTLVTVSA
VL: DIVMTQSHKFMSTSVGDRVSITCKASQDVNTAVGWYQQKPGQSPKLLIYSASYRYTGVPDRFTGSGSGTDFTFTISSVQAEDLAVYYCQQHYSSPYTFGGGTKLEIK
notes: as for B1
B16: SC16.110 (antibody, V domains shown)
VH: EVQLQQSGPGLVRTGASVKISCKASGYSFTGYYMHWVKQSHGKSLEWIGYISCYNGATTYNQNFKGKATFIVDTSSSTAYMQFNSLTSEDSAVYYCARSDGGHAMDYWGQGTSVTVSS
VL: NIVMTQTPKFLLVSAGDRVTITCKASQSVSNDVAWYQQKPGQSPKLLIYYASNRYTGVPDRFTGSGYGTDFTFTISTVQAEDLAVYFCQQDYSSPPTFGGGTKLEIK
notes: as for B1
B17: SC16.122 (antibody, V domains shown)
VH: EVQLVESGGGLVKPGGSLKLSCAASGFTFSDYYMFWVRQTPEKRLEWVATISDGGSYTYFPDSVKGRFTISRDNAQNNLYLQMSSLKSEDTAMYYCARAGTLYAMDYWGQGTSVTVSS
VL: DIVMTQSQKFMSTSVGDRVSVTCKASQNVGTNVAWYQQKPGQSPKVLIYSASYRYSGVPDRFTGSGSGTDFTLTISNVQSEDLAEFFCQQYNSYPLTFGGGTKLEIK
notes: as for B1
B18: SC16.113 (antibody, V domains shown)
VH: DVKLVESGGGLVKPGGSLKLSCAASGFTFSSYTMSWVRQTPEKRLEWVATISSGGSYPYYPDSVKGRFTISRDNAKNTLYLQMSSLKSEDTAMYYCTRDVYDGYSYWGQGTTLTVSS
VL: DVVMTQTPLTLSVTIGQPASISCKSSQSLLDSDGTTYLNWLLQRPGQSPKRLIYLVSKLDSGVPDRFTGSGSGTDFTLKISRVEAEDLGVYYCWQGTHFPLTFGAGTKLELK
notes: as for B1
B19: SC16.115 (antibody, V domains shown)
VH: DVKLVESGGGLVKPGGSLKLSCAASGFTFSSYTMSWVRQTPEKRLEWVATISSGGSYPYYPDSVKGRFTISRDNAKNTLYLQMSSLKSEDTAMYYCTRDVYDGYSYWGQGTTLTVSS
VL: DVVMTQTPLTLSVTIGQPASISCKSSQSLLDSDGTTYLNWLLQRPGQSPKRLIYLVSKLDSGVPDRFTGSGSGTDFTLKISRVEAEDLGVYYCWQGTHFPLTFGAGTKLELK
notes: as for B1
B20: SC16.105 (antibody, V domains shown)
VH: QVQLQQPGAELVKPGASVKLSCKASGYTFTSYWMHWVKQRPGQGLEWIGVINPSNGRTNYNEKFKSKATLTVDKSSSTAYMQLSSLTSEDSAVYYCARRRELGTLYAMDYWGQGTSVTVSS
VL: DIVMTQSHKFMSTSVGDRVSITCKASQDVGTAVAWYQQKPGQSPKLLIYWASIRHTGVPDRFTGSGSGTDFTLTISNVQSEDLADYFCQQYSSYPLTFGAGTKLELK
notes: as for B1

biological target: T1, human DLL3 (immobilized human DLL3 or …); experiment: hybridoma screening on immobilized human DLL3 or on h293-hDLL3 cells

Binding result, binds:
B1
B2
B3
B4
B5
B6
B7
B8
B9
B10
B11
B12
B13
B14
B15
B16
B17
B18
B19
B20

Source: patent publication US20180044415A1 (AbbVie / Abbott, published 2018)
